# Laboratory results from PMC9333443, “Structural insights into Pot1-ssDNA, Pot1-Tpz1 and Tpz1-Ccq1 Interactions within fission yeast shelterin complex” (PLoS Genetics, 2022).
# B1: Tpz1, two-hybrid fusion, wild type (construct limits not stated) [S. pombe] / Ccq1, two-hybrid fusion, wild type (construct limits not stated) [S. pombe] (parent complex)
# chain 1: MSNCLKHPWLENGLLNLIKNADVLPIRVFKCQPLQIFEYIRYEHPIRCKLSDTEFYIEAEFSSQSISDLNNFTEKRITSLRGGIVTLGNFLIHLIPSQSGIIPWIQVESFNFQGCEGAVFGNPKAITTSALFNALLQSPYLAALANEFNRSIKEGSSYQEASLSQQEKPNDNTSNSRDIKNNIQFHWKNMTSLSIEECIIPKGQQLILEKESEENTTHGIYLEERKMAQGLHNSVSETPEVKQEDNDEDLDAYSWSSSTDSAGEIPSLPTNRKILEKIAEKPPPFESPLEDDETPDQTNEHEANQVNVSQLPLNPRGSGISGRPVESTEQLNSSLTIERSQSIQSTDSKQRVETQSHRRSKIEIFDAQDELFDRSICTTIDDSTGKLLNAEETPIKTGDLHSTSASSVISCTPPAINFTSDICNEQIELEYKRKPIPDYDFMKGLETTLQELYVEHQSKKRRLELFQLTNNHQKNSEACEMCRLGLPHGSFFELLRDWKKIEEFRNKS
# chain 2: MSEINDFTNSIIINESDTKYEVYSEVNSSNRWIAKEDCPSPLEDVWLLKLAGHKRKLEEPLSCMRNEEPASKQREIEKFLRTDLDHSENDFLTQEVDEFPSTQQLFPIPLQNDTAFDSSEESITKSSKSSFSVLDIGLPMSALQRKMMHRLVQYFAFCIDHFCTGPSDSRIQEKIRLFIQSAHNIAKHPSLYDTEVRNPSAAESTNSHVSLDASNFSSYAENSSKFLFLQELFKNLSPSYSKTFFLFISNQFLANTLTQWLKSQNIDAELWAEEDAKTSQHPAIWICVSKKAPSASHFLQSCPDLSATIFYDIEAYMSVTSSLPSIQSLVLRLIHLGSIEHAIKCFQSSYNASFLVNIVGVVATLSSSSEENSEASNLSTLFEKSGNFEEILGSESHSSITEKTRDIAKNVATWLKNGENFSSWPLPPLMDLASLSVAEPRDSQPSVSQVNDTFVKSSDSTFPSSQSMQSPSKLHSLTSNATDLLSSSSLKKNFFSQQEADEVELSNNYDLQGAAVQYLQRRLRMVEDELHEAINSKNVQQSRSEELEQQISKLTDNLQEYRNTVRELKLDLEKSKKKNEDLSKLEVEKVEEIANLKKELTHLAKQQEFGFKYVQEFSNEDLQGKLIEANEKNYKLTQLLKTQKEDADFITNQYQNASTFAAEQSKEVAKLQAECKRLQAINSKVMEEVKVYNDSRVEALLAKVSSLEETLKILEQKSLPKFTPHNQSPRIIDSN
# Variants of: B1
# Assay: yeast two-hybrid (β-galactosidase); parent: 100; read off a plot
row,Variant,percent of parent [% WT]
1,chain 2 L177R,~85
2,chain 2 I185R,~13
3,chain 2 P189R,~13
4,chain 2 M147R,~13
5,chain 2 E221R,~31

# Continued, values first:
row,percent of parent [% WT],Variant
1,~16,chain 2 L143R
2,~13,chain 2 F155R
3,~13,chain 2 L151R

# Variants of: B1
# Assay: as above
# Remark: another data set of the same source
row,Variant,percent of parent [% WT]
1,chain 1 Y453R,~16
2,chain 1 L445R,~14
3,chain 1 D438A,~100
4,chain 1 Y439A,~15
5,chain 1 F441A,~14
6,chain 1 H456A,~100

# The next lines start with the values.
row,percent of parent [% WT],Variant
1,~72,chain 1 K432A
2,~65,chain 1 P435A
3,~15,chain 1 L449R
4,~90,chain 1 R433A
